Test results: doi:10.1101/2024.04.26.587986 (bioRxiv, 2024)

Biological target: the molecule itself
Assay: SEC

B1: β-galactosidase (GLB1), endogenous in mouse brain (enzyme, mouse (endogenous in mouse brain), UniProt P23780 30-647, looked up)
chain: QRTFKLDYSRDRFLKDGQPFRYISGSIHYFRIPRFYWEDRLLKMKMAGLNAIQMYVPWNFHEPQPGQYEFSGDRDVEHFIQLAHELGLLVILRPGPYICAEWDMGGLPAWLLEKQSIVLRSSDPDYLVAVDKWLAVLLPKMKPLLYQNGGPIITVQVENEYGSYFACDYDYLRFLVHRFRYHLGNDVILFTTDGASEKMLKCGTLQDLYATVDFGTGNNITQAFLVQRKFEPKGPLINSEFYTGWLDHWGKPHSTVKTKTLATSLYNLLARGANVNLYMFIGGTNFAYWNGANTPYEPQPTSYDYDAPLSEAGDLTKKYFALREVIQMFKEVPEGPIPPSTPKFAYGKVALRKFKTVAEALGILCPNGPVKSLYPLTFTQVKQYFGYVLYRTTLPQDCSNPKPIFSSPFNGVRDRAYVSVDGVPQGILDRNLMTALNIRGKAGATLDILVENMGRVNYGRFINDFKGLISNMTINSTVLTNWTVFPLNTEAMVRNHLWGREASDEGHLDGRSTSNSSDLILPTFYVGNFSIPSGIPDLPQDTFIQFPGWSKGQVWINGFNLGRYWPTMGPQKTLFVPRNILTTSAPNNITVLELEFAPCSEGTPELCTVEFVDTPVIS
- stoichiometry N: 4
